Test results published in US4732933A, “Neocarzinostatin complexes, a method for producing the same, and an antitumor agent containing said complexes as an active component” (Kayaku Antibiotics Research Co., Ltd., priority 1982, dated 1988).

What was measured:
[1] = test system: normal fibroblasts of rabit; experiment: Cell toxicity to normal fibroblasts; assay type: cell-based; set-up: key to Cell toxicity to normal fibroblasts: +: Intensity of toxicity; -: No toxicity; settings: for Cell toxicity to normal fibroblasts: judgement after 3 days
Excerpt: Comparison of cell toxicity
to normal fibroblasts of rabit*
*Judgement after 3 days

cancer VX-2 of liver = experiment: Tumor affinity in cancer VX-2 of liver after intravenous injection; assay type: in vivo, rabit
Excerpt: Tumor affinity in cancer VX-2 of liver of
rabit after intravenous injection of SMANX

[2] = Solubility of SMANX in various solvents compared with NCS and starting copolymer (Table 1); assay type: physicochemical; settings: concentration: 1 mg/ml
Protocol: |(concentration: 1 mg/ml)

Compound | Cell toxicity to normal fibroblasts ([1]; 0.1 μg/ml) | Cell toxicity to normal fibroblasts ([1]; 1.0 μg/ml) | LD50 ([1]; footnote to Table 8 (Cf.)) | Tumor affinity, distant site (normal liver) (cancer VX-2 of liver; 10 mg/kg, 90') | Tumor affinity, interior of tumor (cancer VX-2 of liver; 10 mg/kg, 90') | Tumor affinity, distant site (normal liver) (cancer VX-2 of liver; 15') | Tumor affinity, interior of tumor (cancer VX-2 of liver; 15') | Tumor affinity, distant site (normal liver) (cancer VX-2 of liver; 60') | Tumor affinity, interior of tumor (cancer VX-2 of liver; 60') | Solubility in 10 mM aqueous solution of sodium bicarbonate [2] | Solubility in Acetone [2] | Solubility in Dioxane [2] | Solubility in Lipiodol [2] | Solubility in Methanol [2] | Solubility in Pyridine [2] | Solubility in Water pH 5.0 ([2]; pH 5.0) | Solubility in Water pH 8.0 ([2]; pH 8.0)
CO[C@@]12[C@H](COC(N)=O)C3=C(C(=O)C(C)=C(N)C3=O)N1C[C@@H]1N[C@@H]12 [Mitomycin C, reference compound] | + |  |  |  |  |  |  |  |  |  |  |  |  |  |  |  | 
neocarzinostatin [NCS] | - | + | 1.0 µg/mL | 0 | 0 | 0 | 0 | 0 | 0 | soluble | insoluble | insoluble | insoluble | insoluble | insoluble | soluble | soluble
